Experiments:
Test in all cases: two-hybrid library CCNG1;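 also: natural log of median RNA to DNA barcode read ratio; higher means stronger binding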
P7A-bH = molecular target: T1, P7A-bH
T1 chain: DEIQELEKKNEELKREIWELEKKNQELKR

P8A-bH = molecular target: T2, P8A-bH
T2 chain: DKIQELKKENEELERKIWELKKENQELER

P6A-bH = molecular target: T3, P6A-bH
T3 chain: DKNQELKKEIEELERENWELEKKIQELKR

P4A-bH = molecular target: T4, P4A-bH
T4 chain: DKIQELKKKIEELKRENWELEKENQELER

P5A-bH = molecular target: T5, P5A-bH
T5 chain: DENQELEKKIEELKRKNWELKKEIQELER

P9A-bH = molecular target: T6, P9A-bH
T6 chain: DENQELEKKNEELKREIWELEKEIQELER

P4bH1 = molecular target: T7, P4bH1
T7 chain: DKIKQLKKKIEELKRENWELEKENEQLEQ

4H491-bN = molecular target: T8, 4H491-bN
T8 chain: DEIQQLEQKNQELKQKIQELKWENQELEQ

4H3961-bN = molecular target: T9, 4H3961-bN
T9 chain: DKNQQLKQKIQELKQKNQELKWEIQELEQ

4H470-bN = molecular target: T10, 4H470-bN
T10 chain: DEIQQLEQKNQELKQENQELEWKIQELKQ

4H4038-bN = molecular target: T11, 4H4038-bN
T11 chain: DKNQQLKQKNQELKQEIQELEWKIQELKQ

4H3907-bN = molecular target: T12, 4H3907-bN
T12 chain: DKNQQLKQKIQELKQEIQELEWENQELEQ

B1: P4A-bH (peptide)
chain: DKIQELKKKIEELKRENWELEKENQELER
B1 gave an interaction score (P7A-bH) of -0.412, an interaction score (P8A-bH) of 0.0606 and an interaction score (P6A-bH) of -2.06. It also gave an interaction score (P4A-bH) of -1.38, an interaction score (P5A-bH) of -0.285 and an interaction score (P9A-bH) of -0.144.

B2: 4H491-bN (peptide)
chain: DEIQQLEQKNQELKQKIQELKWENQELEQ
In the case of B2, the interaction score (P4bH1) is reported as -0.336 and the interaction score (4H491-bN) is reported as -0.336.

B3: 4H3907-bN (peptide)
chain: DKNQQLKQKIQELKQEIQELEWENQELEQ
For B3, the interaction score (4H3961-bN) was -1.64, the interaction score (4H470-bN) was -1.7 and the interaction score (4H4038-bN) was -2.02. It also gave an interaction score (4H3907-bN) of -1.04.

B4: 4H4038-bN (peptide)
chain: DKNQQLKQKNQELKQEIQELEWKIQELKQ
B4 showed an interaction score (4H4038-bN) of -0.153.

— article PMC10397247
